Assay results published in patent US20230250157A1 (published 2023).
Positions count from the first letter of the chain named.

B1: M8a-25 (antibody, V domains shown)
VH: EVQLQQSVAELVRPGASVKLSCTASGFNIKNTYMHWVKQRPEQGLEWIGRIDPSIDHTRYAPKFQGKAVITAFTSSNTAYLQLSSLTSEDTAIYYCAREGGGNYPYYYAIDYWGQGTSVTVSS
VL: DIQMTQSSSSFSVSLGDRVTITCKASEDIYIRLAWYQQRPGNAPRLLISNAISLETGVPSRFSGSGFGKDHTLSITSLQTEDVATYYCQQYWSTPWTFGGGTKLEIK
B2: M8a-11 (antibody, V domains shown)
VH: EVQLQQSGPELVKPGASVKIPCKASGYTFTDYNMDWVKQSHEKSLEWIGEIDPNNGDTIYNQKFKGKASLTVDKSSSTAYMELRSLTSEDTAVYYCAKRGYYGSSLWWYFDVWGTGTTVTVSS
VL: B1 VL with F67S, H71Y
B3: M8a-29 (antibody, V domains shown)
VH: B1 VH
VL: DIVMTQAAFSNPVTLGTSASISCRSTKSLLHSNGITYLYWYLQKPGQSPQLLIYQMSNLASGVPDRFSSSGSGTDFTLRISRVEAEDVGVYYCAQNLELPYTFGGGTKLEIK
B4: M8a-7 (antibody, V domains shown)
VH: QAYLQQSGAEMVRPGASVKMSCKASGYTFNNYNMHWVKQTPSQGLEWIGGFYPGNDDTAYSQKFKGKATLTVDKSSSTAFMHLSSLTSEDSAVYFCARSLGRYYAMDYWGQGTSVTVSS
VL: not shown
B5: M8a-15 (antibody, V domains shown)
VH: QVQLQQSGPELARPGASVKLSCRASGYTVTSFGLSWMKQRTGQGLEWIGEIYPTSKNTYYNDKFRTKATLTADKSSSTAYMELRSLTSEDSAVYFCVLYDYFDYWGQGTTLTVSS
VL: QIVLTQSPAIMSASPGEKVTISCSASSSVSYMYWYQQKTGSSPKPWIYRTSNLASGVPVRFSGSGSGTSYSLTISSMEAEDAATYYCQQYQSYPRTFGGGTKLEIK
B6: M8a-30 (antibody, V domains shown)
VH: QVHLQQSGPELVKPGASVKISCKASGYGFSSSWMNWVKQRPGKGLEWIGRIYPGDGDTNYNDKFQGKATLTADRSSSTAYMHLTSLTSADSAVYFCARSLLYSFDYWGQGTTLTVSS
VL: DVVVTQTPLSLPVSFGDQVSISCRSSQSLAGSYGHTYLSWYLHKSGQSPQLLIYGISNRFSGVPDRFSGSGSGTDFTLKISTIKPEDLGMYYCLQGTHQPLTFGAGTKLELK
B7: M8a-6 (antibody, V domains shown)
VH: QVQLQQPGTELVMPGASVKLSCKTSGYTFTHYWMHWVKQRPGEGLEWIGEIAPSDNYVKYNQKFKGKSTLSVDRSSSTAYMQLSSLTSEDSAVYFCARPDNSGYPVYFDYWGQGTSLTVSS
VL: DIVMTQSQKFMSTSLGDRVSISCKASQDVGTTVAWYQQKPGQSPKLLIYWASTRHTGVPDRFTGTGSGTDYTLTISSVAAEDLALYYCQQHYNTPYTFGGGTKLEIE
B8: M8a-28 (antibody, V domains shown)
VH: QVQLQQPGAELVKPGASVKMSCKASGYNFNHYWISWVKQRPGQGLEWIGDIYPLSHFTTYNEKFTNRATLTVDTSSTTAYMQLNSLTSDDSAVFYCARWDYFDSRTFDYWGQGTTLTVSS
VL: DILLTQFPAILSVSPGERVSFSCRASQTIGTNIHWYQQRINGSPRLLIKYASESISGIPSRFSGSGSGTDFSLSINNVESEDIADYYCQQINSWPLTFGAGTKLDLK
B9: M8a-3 (antibody, V domains shown)
VH: QVQLQQPGAELVLPGASVKLSCKASGYTFTNYWMHWVKQRPGHGLEWIGEIDPFDTYIKINQKFKGKSTLTVDTSSSTAYMQLSSLTSEDSAVYYCARPDSSGYPVYFDYWGQGTTLTVSS
VL: DIVMTQSHKFMSTSVGDRVSITCKASQDVGTYIAWYQQKPGQSPKLLIYWASTRHTGVPDRFTGSGSGTNYTLTISSVQAEDLALYHCQQHYSTPYTFGGGTKLEIK
B10: HSW-1 (antibody, V domains shown)
VH: QVQLQQPGAELVKPGTSMKLSCKASGYTFTSYWMHWVKQRPGQGLEWIGMIHPNSGSTKYNENFKSKATLTVDKSSSTAYMQFSSLTSEDSAVYYCVRSGSYYGTTYDYFDYWGQGTTLTVSS
VL: DIVLTQSPASLAVSLGQRATISCRASESVNIYGNSFMHWYQQKPGQPPKLLIFRASNLESGIPVRFSGSGSRTDFTLTINPVEADDVATYYCHQSNEDPFTFGSGTKLEIK

The binders below were run against SHC014 RBD (assay: ELISA).
For B1, the EC50 was greater than 10 µg/mL.
For B2, the EC50 was greater than 10 µg/mL.
For B3, the EC50 was greater than 10 µg/mL.
B4 was tested, and the EC50 was greater than 10 µg/mL.
Binder B5 has an EC50 greater than 10 µg/mL.

These binders were tested against RsSTT200 RBD (assay: ELISA).
With B1 the EC50 was greater than 10 µg/mL.
With B2 the EC50 was greater than 10 µg/mL.
B3 showed an EC50 greater than 10 µg/mL.
B4 showed an EC50 greater than 10 µg/mL.
Binder B5 has an EC50 greater than 10 µg/mL.
B6 gave an EC50 greater than 10 µg/mL.

What follows are binders tested against RmYN02 RBD (assay: ELISA).
B3 was tested, and the EC50 was greater than 10 µg/mL.
For B4, the EC50 was greater than 10 µg/mL.

Each binder was assayed against BtKY72 RBD (assay: ELISA).
B1 showed an EC50 greater than 10 µg/mL.
B2 showed an EC50 greater than 10 µg/mL.
B3 was tested, and the EC50 was greater than 10 µg/mL.
Work on B4 yielded an EC50 greater than 10 µg/mL.
B7 showed an EC50 greater than 10 µg/mL.
B5 showed an EC50 greater than 10 µg/mL.

The binders below were run against Pang17 RBD (assay: ELISA).
For B1, the EC50 was greater than 10 µg/mL.
For B2, the EC50 was greater than 10 µg/mL.
B3 showed an EC50 greater than 10 µg/mL.
In the case of B4, the EC50 is reported as greater than 10 µg/mL.
B8 showed an EC50 greater than 10 µg/mL.
Work on B5 yielded an EC50 greater than 10 µg/mL.

Each binder was assayed against Rf1 RBD (assay: ELISA).
For B9, the EC50 was greater than 10 µg/mL.
For B3, the EC50 was greater than 10 µg/mL.
B4 was tested, and the EC50 was greater than 10 µg/mL.

The binders below were run against LyRa3 RBD (assay: ELISA).
Binder B1 has an EC50 greater than 10 µg/mL.
B2 gave an EC50 greater than 10 µg/mL.
Binder B3 has an EC50 greater than 10 µg/mL.
With B7 the EC50 was greater than 10 µg/mL.
In the case of B5, the EC50 is reported as greater than 10 µg/mL.

Each binder was assayed against Yun11 RBD (assay: ELISA).
B1 gave an EC50 greater than 10 µg/mL.
With B3 the EC50 was greater than 10 µg/mL.
B4 was tested, and the EC50 was greater than 10 µg/mL.
In the case of B10, the EC50 is reported as greater than 10 µg/mL.

These binders were tested against C028 RBD (assay: ELISA).
B1 was tested, and the EC50 was greater than 10 µg/mL.
Binder B2 has an EC50 greater than 10 µg/mL.
For B3, the EC50 was greater than 10 µg/mL.
B4 gave an EC50 greater than 10 µg/mL.
With B5 the EC50 was greater than 10 µg/mL.
With B6 the EC50 was greater than 10 µg/mL.

What follows are binders tested against RaTG13 RBD (assay: ELISA).
With B1 the EC50 was greater than 10 µg/mL.
B2 gave an EC50 greater than 10 µg/mL.
B3 gave an EC50 greater than 10 µg/mL.
B4 showed an EC50 greater than 10 µg/mL.
B5 was tested, and the EC50 was greater than 10 µg/mL.
Binder B6 has an EC50 greater than 10 µg/mL.

What follows are binders tested against Rs4081 RBD (assay: ELISA).
With B1 the EC50 was greater than 10 µg/mL.
Binder B4 has an EC50 greater than 10 µg/mL.
Work on B7 yielded an EC50 greater than 10 µg/mL.
For B5, the EC50 was greater than 10 µg/mL.

These binders were tested against BM4831 RBD (assay: ELISA).
B9 was tested, and the EC50 was greater than 10 µg/mL.
For B1, the EC50 was greater than 10 µg/mL.
B2 gave an EC50 greater than 10 µg/mL.
With B3 the EC50 was greater than 10 µg/mL.
B4 showed an EC50 greater than 10 µg/mL.
In the case of B7, the EC50 is reported as greater than 10 µg/mL.
B10 was tested, and the EC50 was greater than 10 µg/mL.
In the case of B8, the EC50 is reported as greater than 10 µg/mL.
B5 gave an EC50 greater than 10 µg/mL.
With B6 the EC50 was greater than 10 µg/mL.

These binders were tested against Khosta2 RBD (assay: ELISA).
B1 gave an EC50 greater than 10 µg/mL.
With B2 the EC50 was greater than 10 µg/mL.
B3 showed an EC50 greater than 10 µg/mL.
With B4 the EC50 was greater than 10 µg/mL.
For B7, the EC50 was greater than 10 µg/mL.
Work on B10 yielded an EC50 greater than 10 µg/mL.
B5 showed an EC50 greater than 10 µg/mL.
In the case of B6, the EC50 is reported as greater than 10 µg/mL.
